One series deals with T1, RidA (Salmonella enterica, UniProt Q7CP78).
T1 construct: full-length RidA; purification and tag not described here
T1 sequence (Q7CP78 1-128): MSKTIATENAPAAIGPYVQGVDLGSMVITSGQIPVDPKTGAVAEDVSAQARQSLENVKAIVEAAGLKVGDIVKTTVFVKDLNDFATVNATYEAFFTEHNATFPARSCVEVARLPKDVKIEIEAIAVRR
The series can be described thus: semicarbazone competition assay, absorbance at […] nm. Particulars: imine generated in situ by L-amino acid oxidase from 10 mM L-methionine; 10 uM RidA, 50 mM potassium pyrophosphate pH 8.7, 23 °C. The class given is biochemical.

Substrate in the series “purified protein”: NC=CC(=O)O
The series is described as follows: purified protein. The class given is biochemical, Escherichia coli. Particulars: 3-AA generated in situ by 5 uM RutB, varied concentration is ureidoacrylate, not 3-AA, spontaneous deamination not subtracted, 3 uM RutC, 40 mM Tris-HCl pH 8.2, 23 °C.

Consider `CSCCC(=N)C(=O)O` [imino derivative of methionine], for which the “semicarbazone competition assay, absorbance at 248 nm” value on RidA was “RidA showed activity primarily on the imino derivatives of methionine and leucine”.

B1: RutC (Escherichia coli K-12) (protein)
chain: MPKSVIIPAGSSAPLAPFVPGTLADGVVYVSGTLAFDQHNNVLFADDPKAQTRHVLETIRKVIETAGGTMADVTFNSIFITDWKNYAAINEIYAEFFPGDKPARFCIQCGLVKPDALVEIATIAHIAK
Consider B1, for which, in the series “purified protein”, the Km (as a rule, the concentration of substrate that gives half-maximal velocity) came out at 9.1 ± 1.9 mM; the Vmax is 31.9 ± 3.9 nmoles of NADPH consumed min^-1; the kcat (usually the maximal rate divided by the concentration of active sites) amounted to 52 min⁻¹.

Source of the values: PMC8113886, “The Rid family member RutC of Escherichia coli is a 3-aminoacrylate deaminase” (The Journal of Biological Chemistry, 2021).
